# Source: paper PMC3463608
# B1: GST-Chs3 (1–170) D19AE21A (domain or fragment)
# chain: MTGLNGDDPDDYYLNLNQAEASLLRSRHSVGSGAPHRQGSLVRPERSRLNNPDNPHFYYAQKTQEQMNHLDVLPSSTGVNPNATRRSGSLRSKGSVRSKFSGRETDSYLLQDMNTTDKKASVKISDEGVAEDEFDKDGDVDNFEESSTQPINKSIKPLRKETNDTLSFWQ
# Target: His-tagged exomer complex (S. cerevisiae) (UniProt Q12114)
# Experiment: pull-down; His-exomer complex immobilized on Ni-NTA beads, incubated with 150 ug/ml purified GST-Chs3 fragments at RT for 30 min; washes with B88G + 1% Tween 20 and B88G; SDS-PAGE and Coomassie staining; bound fragment quantified, normalized to Chs5p in the lane and to the wt pull-down; two independent experiments
binder,measurement,value
B1,"level of binding, % of wt",62 to 63 % of wt
